1 molecule from article PMC8079415 (2021) can be followed below.

In general, Kd refers to the concentration at which binding is half-saturated. Higher therefore signals lower affinity.

This assay concerns the target full-length human Bcl-2 protein (human, UniProt P10415 1-239). The assay can be described thus: NMR; 5 mM DPC micelles, pH 6.0, 310 K.

full-length human Bcl-2 protein, sequence (P10415 other isoform, or with tags, fused parts or gaps): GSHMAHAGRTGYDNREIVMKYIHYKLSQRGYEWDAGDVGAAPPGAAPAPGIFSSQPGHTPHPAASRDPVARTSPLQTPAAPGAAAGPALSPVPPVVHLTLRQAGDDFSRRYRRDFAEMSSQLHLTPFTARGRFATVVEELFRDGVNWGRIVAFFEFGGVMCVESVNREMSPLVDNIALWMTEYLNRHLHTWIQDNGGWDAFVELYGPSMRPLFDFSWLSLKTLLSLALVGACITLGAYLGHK

On to Ac-QPPQDASTKKLSECLRRIGDELDSNMELQRMIADVD-NH2 [36-mer Bax-BH3 peptide from Mus musculus], for which the dissociation constant Kd came to 143 µM.
